According to IntAct's records for PubMed 16328881:

B1: Minichromosome maintenance protein 10 (Saccharomyces cerevisiae), P32354 (parent)
chain: MNDPREILAVDPYNNITSDEEDEQAIARELEFMERKRQALVERLKRKQEFKKPQDPNFEAIEVPQSPTKNRVKVGSHNATQQGTKFEGSNINEVRLSQLQQQPKPPASTTTYFMEKFQNAKKNEDKQIAKFESMMNARVHTFSTDEKKYVPIITNELESFSNLWVKKRYIPEDDLKRALHEIKILRLGKLFAKIRPPKFQEPEYANWATVGLISHKSDIKFTSSEKPVKFFMFTITDFQHTLDVYIFGKKGVERYYNLRLGDVIAILNPEVLPWRPSGRGNFIKSFNLRISHDFKCILEIGSSRDLGWCPIVNKKTHKKCGSPINISLHKCCDYHREVQFRGTSAKRIELNGGYALGAPTKVDSQPSLYKAKGENGFNIIKGTRKRLSEEEERLKKSSHNFTNSNSAKAFFDEKFQNPDMLANLDNKRRKIIETKKSTALSRELGKIMRRRESSGLEDKSVGERQKMKRTTESALQTGLIQRLGFDPTHGKISQVLKSSVSGSEPKNNLLGKKKTVINDLLHYKKEKVILAPSKNEWFKKRSHREEVWQKHFGSKETKETSDGSASDLEII

Variants of: B1
Details: with sir2_yeast SIR2, P06700
Sequence of sir2_yeast SIR2, P06700 (P06700 whole entry): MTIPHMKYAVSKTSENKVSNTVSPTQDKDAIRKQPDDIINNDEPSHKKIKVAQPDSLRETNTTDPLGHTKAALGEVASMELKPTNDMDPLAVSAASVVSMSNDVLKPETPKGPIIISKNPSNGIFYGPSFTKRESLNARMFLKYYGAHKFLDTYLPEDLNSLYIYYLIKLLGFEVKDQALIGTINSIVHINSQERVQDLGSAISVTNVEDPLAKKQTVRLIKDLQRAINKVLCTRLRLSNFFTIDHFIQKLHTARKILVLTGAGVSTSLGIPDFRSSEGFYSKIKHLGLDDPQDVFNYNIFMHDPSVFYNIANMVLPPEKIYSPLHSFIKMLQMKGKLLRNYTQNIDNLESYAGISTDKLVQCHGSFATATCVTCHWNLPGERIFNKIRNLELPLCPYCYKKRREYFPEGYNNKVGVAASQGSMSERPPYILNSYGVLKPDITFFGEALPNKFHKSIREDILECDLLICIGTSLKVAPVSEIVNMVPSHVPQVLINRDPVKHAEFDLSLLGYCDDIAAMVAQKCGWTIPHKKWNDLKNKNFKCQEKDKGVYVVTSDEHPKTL

| effect of a mutation on the interaction | Variant |
| --- | --- |
| disrupting interaction strength | MNDPREILAVDPYNNITSDEEDEQAIARELEFMERKRQALVERLKRKQEFKKPQDPNFEAIEVPQSPTKNRVKVGSHNATQQGTKFEGSNINEVRLSQLQQQPKPPASTTTYFMEKFQNAKKNEDKQIAKFESMMNARVHTFSTDEKKYVPIITNELESFSNLWVKKRYIPEDDLKRALHEIKILRLGKLFAKIRPPKFQEPEYANWATVGLISHKSDIKFTSSEKPVKFFMFTITDFQHTLDVYIFGKKGVERYYNLRLGDVIAILNLEVLPWRPSGRGNFIKSFNLRISHDFKCILEIGSSRDLGWCPIVNKKTHKKCGSPINISLHKCCDYHREVQFRGTSAKRIELNGGYALGAPTKVDSQPSLYKAKGENGFNIIKGTRKRLSEEEERLKKSSHNFTNSNSAKAFFDEKFQNPDMLANLDNKRRKIIETKKSTALSRELGKIMRRRESSGLEDKSVGERQKMKRTTESALQTGLIQRLGFDPTHGKISQVLKSSVSGSEPKNNLLGKKKTVINDLLHYKKEKVILAPSKNEWFKKRSHREEVWQKHFGSKETKETSDGSASDLEII [P269L] |

Variants of: B1
Details: with sir3_yeast SIR3, P06701
Sequence of sir3_yeast SIR3, P06701 (P06701 whole entry): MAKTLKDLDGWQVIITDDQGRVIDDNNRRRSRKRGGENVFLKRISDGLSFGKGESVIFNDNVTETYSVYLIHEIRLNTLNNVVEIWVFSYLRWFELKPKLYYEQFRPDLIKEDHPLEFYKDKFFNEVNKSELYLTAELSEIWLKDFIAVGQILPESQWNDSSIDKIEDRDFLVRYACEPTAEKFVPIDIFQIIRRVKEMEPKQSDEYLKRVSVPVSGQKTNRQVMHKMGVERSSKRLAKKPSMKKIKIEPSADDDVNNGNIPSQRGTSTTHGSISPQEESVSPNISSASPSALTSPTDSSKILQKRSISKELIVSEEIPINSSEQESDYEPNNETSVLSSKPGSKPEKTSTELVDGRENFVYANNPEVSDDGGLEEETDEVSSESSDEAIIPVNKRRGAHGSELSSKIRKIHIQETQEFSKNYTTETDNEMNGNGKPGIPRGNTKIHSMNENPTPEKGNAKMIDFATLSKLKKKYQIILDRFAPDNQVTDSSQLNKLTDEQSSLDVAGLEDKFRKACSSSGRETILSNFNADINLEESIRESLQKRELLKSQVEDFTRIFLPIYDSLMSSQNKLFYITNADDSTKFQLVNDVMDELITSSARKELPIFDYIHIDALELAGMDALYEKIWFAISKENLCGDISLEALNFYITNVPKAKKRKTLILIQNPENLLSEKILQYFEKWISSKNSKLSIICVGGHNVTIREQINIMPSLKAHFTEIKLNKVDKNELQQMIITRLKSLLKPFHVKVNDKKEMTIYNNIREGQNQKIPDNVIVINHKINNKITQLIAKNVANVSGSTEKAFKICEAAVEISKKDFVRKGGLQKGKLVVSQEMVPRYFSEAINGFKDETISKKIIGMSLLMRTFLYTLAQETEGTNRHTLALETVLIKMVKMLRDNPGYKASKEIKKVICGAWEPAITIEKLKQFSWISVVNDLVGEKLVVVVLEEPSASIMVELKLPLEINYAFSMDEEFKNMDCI

| effect of a mutation on the interaction | Variant |
| --- | --- |
| disrupting interaction strength | MNDPREILAVDPYNNITSDEEDEQAIARELEFMERKRQALVERLKRKQEFKKPQDPNFEAIEVPQSPTKNRVKVGSHNATQQGTKFEGSNINEVRLSQLQQQPKPPASTTTYFMEKFQNAKKNEDKQIAKFESMMNARVHTFSTDEKKYVPIITNELESFSNLWVKKRYIPEDDLKRALHEIKILRLGKLFAKIRPPKFQEPEYANWATVGLISHKSDIKFTSSEKPVKFFMFTITDFQHTLDVYIFGKKGVERYYNLRLGDVIAILNLEVLPWRPSGRGNFIKSFNLRISHDFKCILEIGSSRDLGWCPIVNKKTHKKCGSPINISLHKCCDYHREVQFRGTSAKRIELNGGYALGAPTKVDSQPSLYKAKGENGFNIIKGTRKRLSEEEERLKKSSHNFTNSNSAKAFFDEKFQNPDMLANLDNKRRKIIETKKSTALSRELGKIMRRRESSGLEDKSVGERQKMKRTTESALQTGLIQRLGFDPTHGKISQVLKSSVSGSEPKNNLLGKKKTVINDLLHYKKEKVILAPSKNEWFKKRSHREEVWQKHFGSKETKETSDGSASDLEII [P269L] |
| disrupting interaction strength | MNDPREILAVDPYNNITSDEEDEQAIARELEFMERKRQALVERLKRKQEFKKPQDPNFEAIEVPQSPTKNRVKVGSHNATQQGTKFEGSNINEVRLSQLQQQPKPPASTTTYFMEKFQNAKKNEDKQIAKFESMMNARVHTFSTDEKKYVPIITNELESFSNLWVKKRYIPEDDLKRALHEIKILRLGKLFAKIRPPKFQEPEYANWATVGLISHKSDIKFTSSEKPVKFFMFTITDFQHTLDVYIFGKKGVERYYNLRLGDVIAILNPEVLPWRPSGRGNFIKSFNLRISHDFKCILEIGSSRDLGWCPIVNKKTHKKYGSPINISLHKCCDYHREVQFRGTSAKRIELNGGYALGAPTKVDSQPSLYKAKGENGFNIIKGTRKRLSEEEERLKKSSHNFTNSNSAKAFFDEKFQNPDMLANLDNKRRKIIETKKSTALSRELGKIMRRRESSGLEDKSVGERQKMKRTTESALQTGLIQRLGFDPTHGKISQVLKSSVSGSEPKNNLLGKKKTVINDLLHYKKEKVILAPSKNEWFKKRSHREEVWQKHFGSKETKETSDGSASDLEII [C320Y] |
